{
  "source": "patent US5888763A",
  "about": "“Peptides specific for the first Crk-SH3 domain” (The Rockefeller University, priority 1994, dated 1999)",
  "key": {"[1]": {"biological_target": "gst-CrkSH3SH3", "sequence (Q64010 132-296 limits assumed)": "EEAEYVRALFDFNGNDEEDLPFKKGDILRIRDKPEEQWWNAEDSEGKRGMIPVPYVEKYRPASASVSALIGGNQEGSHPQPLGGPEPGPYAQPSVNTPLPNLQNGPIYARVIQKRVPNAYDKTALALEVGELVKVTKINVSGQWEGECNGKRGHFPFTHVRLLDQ", "assay": "ELISA: biotinylated gst-CB fusion proteins binding to immobilized gst-CrkSH3SH3", "settings": "wells coated with 100 ng/well gst-CrkSH3SH3, biotinylated gst-CB fusion protein, read-out: apparent Kd (half saturation point)", "description": "ELISA. gst-CB-1 to -4 proteins were biotinylated with Sulfosuccinimidyl 6-(biotinamido) hexanoate (Pierce) according to the manufacturers instructions. ELISA plates (Nunc) were coated with 100 ng/well of gst-Grb2, gst-CrkSH3SH3 or gst in 0.1M NaHCO3, pH 9.6, over night at room temperature (Jones et al., 1991, Mol. Cell Biol. 11:2641). Wells were then blocked with 2% BSA. After washing three times with blocking buffer (20 mM Tris-HCl, pH 7.5, 100 mM NaCl, 0.05% Tween-20, 1 mM EDTA, 0.2% BSA and 0.1% Ovalbumin), biotinylated gst-CB fusion proteins were added at the concentrations indicated in FIG. 6. To measure bound gst-CB fusion proteins, wells were incubated with horseradish Peroxidase coupled streptavidin (Gibco). A chromogenic substrate, 2,2'-azinobis(3-ethylbenzothiazoline-6-sulfonic acid) diaminonium salt (ABTS, Pierce) was then added and the OD was measured at 405 nm after 5 and 15 min and the 5 min OD value subtracted from the 15 min OD value to yield DOD405. In each experiment, the DOD405 at saturation of SH3 domain binding sites was considered 100% . DOD405 values for all other points within the same experiment were expressed as a percentage of this 100% value. Binding to gst alone was subtracted at each data point."}, "[2]": {"biological_target": "T1, Grb2 SH3 domain (Homo sapiens, UniProt P62993)", "T1 construct": "made in house; host or cells: bacteria", "T1 sequence (P62993 whole entry, the tested form may be a part)": "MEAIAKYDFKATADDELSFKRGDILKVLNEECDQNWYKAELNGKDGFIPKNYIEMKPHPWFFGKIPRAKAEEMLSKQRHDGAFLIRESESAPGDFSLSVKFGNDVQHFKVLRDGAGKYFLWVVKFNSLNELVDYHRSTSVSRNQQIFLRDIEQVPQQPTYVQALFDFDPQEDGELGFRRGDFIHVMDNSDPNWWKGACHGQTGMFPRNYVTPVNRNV", "assay": "Tryptophan fluorescence titration of peptides with gst-Grb2", "assay_type": "binding"}, "[3]": {"biological_target": "T2, c-CrkSH3(1) (Mus musculus, UniProt Q64010)", "T2 construct": "made in house; host or cells: bacteria", "assay": "Tryptophan fluorescence titration of peptides with gst-c-CrkSH3(1)", "assay_type": "binding, murine", "settings": "Table 2, gst-CrkSH3(1), fluorescence measurements, 18° C", "excerpt": "Fluorescence Measurements. The fluorescence measurements were based predominantly on the interactions of the peptides with the aromatic residues, predominantly Trp (Yu et al., 1994, Cell 76:933) in the CrkSH3 domain.\nMeasurements were made with a Perkin-Elmer 760-40 fluorescence spectrophotometer at a excitation wavelength of 290 nm (slitwidth 2 nm) and an emission wavelength of 345 nm (slitwidth 17 nm). A mini-magnetic stirrer, CUV-O-STIR model 333 (HELLMA, Long Island, N.Y.) was used to mix the solution in a 1 cm square quartz fluorescence cell. A circulating water bath was used to maintain the sample temperature at 18° C. To obtain the titration curves for calculations of the binding constants, peptides from a stock solution of 5 mg/ml in TBS, 0.05% Tween-20 were added in small increments to a 1 ml volume of 0.5 μM SH3 domain in PBS, 1 mM Dithiothreitol (DTT).\nCalculation of the binding constant. Since the concentration of the SH3-domain containing protein was low, the experimental data were fitted to the following equation:\nF=Fmax *[peptide]/(Kd +[peptide]) (1)\nNon-linear regression curve fitting using SigmaPlot (Jandel Scientific, San Rafael, Calif.) was carried out to fit the experimental data to equation (1) with Fmax and Kd as fitted parameters."}, "[4]": {"biological_target": "T3, gst-c-CrkSH3(1) (Example 2) (murine, UniProt Q64010)", "assay": "tryptophan fluorescence titration with gst-CrkSH3(1)"}, "[5]": {"biological_target": "T3, gst-c-CrkSH3(1) (Example 2)", "assay": "tryptophan fluorescence titration"}, "[6]": {"biological_target": "T3, gst-c-CrkSH3(1) (Example 2)", "assay": "tryptophan fluorescence titration", "remark": "listed apart in the source"}, "[7]": {"biological_target": "gst-v-Crk (Avian sarcoma virus CT10 (Avian sarcoma …, UniProt P05433))", "assay": "tryptophan fluorescence titration"}, "[8]": {"settings": "Table 2, gst-Grb2, fluorescence measurements, 18° C, read-out: Grb2SHD Kd"}},
  "note": "Like-named read-outs stand apart in the source and are kept apart here. Where a SMILES comes first, the peptide text is derived from it. Where no end group is shown, it is not given here.",
  "data": [
    {"molecule": "gst-CB-4: gst-fusion protein containing only the single proline-rich sequence CB-4 of C3G (APPPALPPKQRQ; also: fused to GST)", "values": [
      {"measurement": "Kd", "setting": "[1]", "result": 2.85, "unit": "nM"}
    ]},
    {"molecule": "gst-CB-3: gst-fusion protein containing only the single proline-rich sequence CB-3 of C3G (EKPPPLPEKKNK; also: fused to GST)", "values": [
      {"measurement": "Kd", "setting": "[1]", "result": 11.3, "unit": "nM"}
    ]},
    {"molecule": "CC(C)C[C@H](NC(=O)[C@@H]1CCCN1C(=O)[C@@H]1CCCN1)C(=O)N[C@@H](CC(C)C)C(=O)N1CCC[C@H]1C(=O)N1CCC[C@H]1C(=O)N[C@@H](CCCNC(=N)N)C(=O)N[C@@H](CCC(=O)O)C(=O)N1CCC[C@H]1C(=O)N[C@H](C(=O)O)C(C)C", "note": "[SOS-3, reference compound] (H-PPLLPPREPV-OH)", "values": [
      {"measurement": "Kd", "setting": "[2]", "result": "88 ± 3", "unit": "µM"},
      {"measurement": "Kd", "setting": "[3]; c-CrkSH3(1) Kd (μM)", "result": "206 ± 9", "unit": "µM"}
    ]},
    {"molecule": "gst-CB-2: gst-fusion protein containing only the single proline-rich sequence CB-2 of C3G (DTPPALPEKKRR; also: fused to GST)", "values": [
      {"measurement": "Kd", "setting": "[1]", "result": 27, "unit": "nM"}
    ]},
    {"molecule": "CC[C@H](C)[C@H](NC(=O)[C@H](C)NC(=O)[C@@H]1CCCN1C(=O)[C@@H]1CCCN1)C(=O)N1CCC[C@H]1C(=O)N1CCC[C@H]1C(=O)N[C@@H](CCCNC(=N)N)C(=O)N[C@@H](CCC(N)=O)C(=O)N1CCC[C@H]1C(=O)N[C@H](C(=O)O)[C@@H](C)O", "note": "[SOS-2] (H-PPAIPPRQPT-OH)", "values": [
      {"measurement": "Kd", "setting": "[2]; [8]", "result": "42 ± 4", "unit": "µM"}
    ]},
    {"molecule": "CC(C)C[C@H](NC(=O)[C@@H]1CCCN1C(=O)[C@@H]1CCCN1C(=O)[C@@H]1CCCN1C(=O)[C@@H]1CCCN1)C(=O)N1CCC[C@H]1C(=O)N1CCC[C@H]1C(=O)N[C@@H](CCCCN)C(=O)N[C@@H](CCCCN)C(=O)N[C@@H](CCCNC(=N)N)C(=O)O", "note": "[C3Gmut(1)] (H-PPPPLPPKKR-OH)", "values": [
      {"measurement": "Kd", "setting": "[2]", "result": "203 ± 3", "unit": "µM"}
    ]},
    {"molecule": "gst-CB-1: gst-fusion protein containing only the single proline-rich sequence CB-1 of C3G (SPPPALPPKKRQ; also: fused to GST)", "values": [
      {"measurement": "Kd", "setting": "[1]", "result": 10.4, "unit": "nM"}
    ]},
    {"molecule": "CC(C)[C@H](NC(=O)[C@@H]1CCCN1C(=O)[C@@H]1CCCN1C(=O)CN)C(=O)N1CCC[C@H]1C(=O)N1CCC[C@H]1C(=O)N[C@@H](CCCNC(=N)N)C(=O)N[C@@H](CCC(N)=O)C(=O)N[C@@H](CO)C(=O)N[C@H](C(=O)O)[C@@H](C)O", "note": "[SOS-4, reference compound] (H-GPPVPPRQST-OH)", "values": [
      {"measurement": "Kd", "setting": "[2]; [8]", "result": "94 ± 5", "unit": "µM"},
      {"measurement": "Kd", "setting": "[3]; read-out: c-CrkSH3(1) Kd", "result": "663 ± 3", "unit": "µM"}
    ]},
    {"molecule": "KPPPLPEKKQ", "note": "[CB-3 peptide]", "values": [
      {"measurement": "binding result", "setting": "[4]", "result": "binds"}
    ]},
    {"molecule": "PPPALPPAKR", "note": "[Lys-10Ala mutant peptide (PPPALPPAKR)]", "values": [
      {"measurement": "fold decrease of binding against the wild type CB-1 peptide", "setting": "[5]", "result": 10, "unit": "fold"},
      {"measurement": "fold increase of Kd against the wild type CB-1 peptide", "setting": "[5]", "result": 11.7, "unit": "fold"},
      {"measurement": "fold reduction of binding affinity against the wild type CB-1 peptide", "setting": "[5]", "result": 11.6, "unit": "fold"},
      {"measurement": "Kd", "setting": "[6]", "result": 22.1, "unit": "µM"}
    ]},
    {"molecule": "PPPALPPKAR", "note": "[peptide PPPALPPKAR]", "values": [
      {"measurement": "Kd", "setting": "[6]", "result": 5.74, "unit": "µM"}
    ]},
    {"molecule": "PPPALPPKQR", "note": "[CB-4 peptide]", "values": [
      {"measurement": "binding result", "setting": "[4]", "result": "binds"}
    ]},
    {"molecule": "PPPALPPRKR", "note": "[C3Gmut(2) peptide (PPPALPPRKR)]", "values": [
      {"measurement": "fold decrease of binding against the wild type CB-1 peptide", "setting": "[5]", "result": 10, "unit": "fold"},
      {"measurement": "fold increase of Kd against the wild type CB-1 peptide", "setting": "[5]", "result": "~9", "unit": "fold"},
      {"measurement": "Kd", "setting": "[7]", "result": 23.5, "unit": "µM"}
    ]},
    {"molecule": "PPPALPPKKA", "note": "[peptide PPPALPPKKA]", "values": [
      {"measurement": "Kd", "setting": "[6]", "result": 9.3, "unit": "µM"},
      {"measurement": "Kd", "setting": "[7]", "result": 71.8, "unit": "µM"}
    ]},
    {"molecule": "PPPALPPKKK", "note": "[peptide PPPALPPKKK]", "values": [
      {"measurement": "Kd", "setting": "[6]", "result": 5, "unit": "µM"},
      {"measurement": "Kd", "setting": "[7]", "result": 36.2, "unit": "µM"}
    ]},
    {"molecule": "TPPALPEKKR", "note": "[CB-2 peptide]", "values": [
      {"measurement": "binding result", "setting": "[4]", "result": "binds"}
    ]},
    {"molecule": "PPPVPPRRRR", "note": "[SOS-1 peptide (PPPVPPRRRR)]", "values": [
      {"measurement": "Kd", "setting": "[7]", "result": 23.7, "unit": "µM"}
    ]}
  ]
}
